Measurements as given in the nanobody polyreactivity screen of Harvey et al. (2022).

Assay: yeast display, Sf9 membrane polyspecificity reagent, FACS + sequencing; frameworks hold sequencing errors
How it was run: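 A nanobody's polyreactivity label depends on the gate it was sorted from. Yeast display cells were stained with 10% biotinylated, detergent-solubilized Sf9 membrane reagent for 1 hour at 4 °C, enriched on streptavidin microbeads and sorted by FACS. The low and high (top ~1%) gates were set on anti-HA fluorescence for expression and streptavidin fluorescence for reagent binding.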

Row | Sequence | polyreactivity (PSR sort gate)
1 | QVQLVESGGGLVQAGGSLRLSCAASGSIFGANVMGWYRQAPGKERELVAGITGSGGSTYADSVKGRFTISRDNAKNTVYFQMNSLKPEDTAVYYCNADTQFALVADFDYWGQGTQVTVSS | low polyreactivity
2 | QVQLVESGGGLVQAGGSLRLSCAASGSIFGAYAMGWYRQAPGKERELVAAIDKSTGSTYYADSVKGRFTISRDNAKNTVYLQMNSLKPEDTAVYYCAKDWGVYQYSYDYWGQGTQVTVSS | low polyreactivity
3 | QVQLVESGGGLVQAGGSLRLSCAASGSIFGAYAMGWYRQAPGKERELVAAISGSGTSTYYADSVKGRFTISRDNAKNTVYLQMNSLKPDDTAVYYCATAKLTWRSQGLDYWGQGTQVTVSS | low polyreactivity
4 | QVQLVESGGGLVQAGGSLRLSCAASGSIFGAYAMGWYRQAPGKERELVAAISSSVDRTYYADSVKGRFTNSRDNAKNTVYLQMNCLKPEDTAVYYCAARWGTRDRTKYYYWGQGTQVTVSS | high polyreactivity
5 | QVQLVESGGGLVQAGGSLRLSCAASGSIFGAYAMGWYRQAPGKERELVAVIRWGGGSTYADSVKGRFTISRDNAKNTVYLQMNRLKPEDTAVYYCNRDKSWADLYSHAYDYWGQGTQVTVSS | low polyreactivity
6 | QVQLVESGGGLVQAGGSLRLSCAASGSIFGAYMGWYRQAPGTEREFVAAINRSGSSTYYADSVKGRFTISRDNAKNTVYLQMNSLKPEDTAVYYCAAKYPGGETYPFDYWGQGTQVTVSS | low polyreactivity
7 | QVQLVESGGGLVQAGGSLRLSCAASGSIFGAYTMGGYRQAPGKERELVAAISIGGSTNYADSVKGRFTISRDYAKNTVYLQMNSLKPEDSAVYYCNAEPDLEDWWWAIGLYDYWGQGTQVTVSS | high polyreactivity
8 | QVQLVESGGGLVQAGGSLRLSCAASGSIFGAYTMGWYRPAPGKERELVAALSIGGSTNYADSVKGRFTISRDNAKNTVYLQMNSLKPEDTAVYYCNAEPHREDWWWAIGLYDYWGQGTQVTVSS | high polyreactivity
9 | QVQLVESGGGLVQAGGSLRLSCAASGSIFGAYTMGWYRQAPGKERELVAAISRSGSTYYADSVKGRFTISRDNAKNTVYLQMKSLKPEDTAVYYCYGVGYSGLRRYYKYDYWGQGTQVTVSS | high polyreactivity
10 | QVQLVESGGGLVQAGGSLRLSCAASGSIFGAYVMGWYRQAPGKERELVAAISRSGASTYYADSVKGRFTISRDNAKNTVYLQMNSLKPEDTAVYYCAARDRQRVSYCYWGQGTQVTVSS | high polyreactivity
11 | QVQLVESGGGLVQAGGSLRLSCAASGSIFGAYVMGWYRQAPGKERELVAAITRRGGSTYYADSVKGRFTISRDNAKNTVYLQMNSLKPEDTAVYYCAARRGAGDGYWGQGTQVTVSS | high polyreactivity
12 | QVQLVESGGGLVQAGGSLRLSCAASGSIFGDNAMAWYRQAPGKERELVARISSGGNTYYADSVKGRFTISRDNAKNTVYLQMNSLKPEDTAVYYCAAAIKVRYKKFPYYYWGQGTQVTVSS | high polyreactivity
13 | QVQLVESGGGLVQAGGSLRLSCAASGSIFGDNAMGWYRQAPGKERELVAAISIVGSTSYADSVKGRFTISRDNAKNTVYLQMNSLKPEDTAVYYCAADTFYSYYDMDYWGQGTQVTVSS | low polyreactivity
14 | QVQLVESGGGLVQAGGSLRLSCAASGSIFGDNAMGWYRQAPGKERELVAAITSSGGSTYYADSVKGRFTISRDNAKNTVYLQMNSLKPEDTAVYYCNADFGYGWYLRYDYWGQGTQVTVSS | high polyreactivity
15 | QVQLVESGGGLVQAGGSLRLSCAASGSIFGDNAMGWYRQAPGKERELVAAITTGASRTYYADSVKGRFTISRDNAKNTVYLQMNSLKPEDTAVYYCNASDPSWREYDYWGQGTQVIVSS | low polyreactivity
16 | QVQLVESGGGLVQAGGSLRLSCAASGSIFGDYAMGWYRQAPGKERELVAAITSSGGITYYADSVKGRFTISLDNAKNTVYLQMKSLNPEDTAVYYCAAYGYGSNYRYTGYYYWGQGTQVTVSS | low polyreactivity
